Laboratory results as given in PMC11611905, “Recruitment of autophagy initiator TAX1BP1 advances aggrephagy from cargo collection to sequestration” (The EMBO Journal, 2024).

Key:
Conditions in all cases: both partners purified
10x-His-GFP-TAX1BP1 = target: T1, 10x-His-GFP-TAX1BP1 (UniProt Q86VP1 1-789); assay: peptide or protein array; entire NBR1 sequence spotted as 12 aa peptides on a membrane; GFP-TAX1BP1 at 50 µg/ml in SEC buffer, 2 h at RT; detection by western blot
T1 construct: TAX1BP1, full-length (FL); also called GFP-TAX1BP1 FL; recombinant TAX1BP1; source: Sf9 insect cells (pLIB vector, baculovirus), purified; not shown: GFP, N-terminal, kept

GFP-NBR1 (purified) = target: T2, GFP-NBR1 (purified) (UniProt Q14596 1-966); assay: microscopy-based protein interaction assay; GST-TAX1BP1 (FL, N-domain, point mutants; 2.5 µM) as bait on GSH beads, 1 µM GFP-NBR1 as prey; SEC buffer (25 mM HEPES pH 7.5, 150 mM NaCl, 1 mM DTT); 15-30 min at RT; confocal imaging of the beads
T2 construct: NBR1; source: HEK293 (pCAGGSsH-C vector, VBCF ProTech facility), purified; not shown: GFP, N-terminal, kept
T2 sequence (looked up): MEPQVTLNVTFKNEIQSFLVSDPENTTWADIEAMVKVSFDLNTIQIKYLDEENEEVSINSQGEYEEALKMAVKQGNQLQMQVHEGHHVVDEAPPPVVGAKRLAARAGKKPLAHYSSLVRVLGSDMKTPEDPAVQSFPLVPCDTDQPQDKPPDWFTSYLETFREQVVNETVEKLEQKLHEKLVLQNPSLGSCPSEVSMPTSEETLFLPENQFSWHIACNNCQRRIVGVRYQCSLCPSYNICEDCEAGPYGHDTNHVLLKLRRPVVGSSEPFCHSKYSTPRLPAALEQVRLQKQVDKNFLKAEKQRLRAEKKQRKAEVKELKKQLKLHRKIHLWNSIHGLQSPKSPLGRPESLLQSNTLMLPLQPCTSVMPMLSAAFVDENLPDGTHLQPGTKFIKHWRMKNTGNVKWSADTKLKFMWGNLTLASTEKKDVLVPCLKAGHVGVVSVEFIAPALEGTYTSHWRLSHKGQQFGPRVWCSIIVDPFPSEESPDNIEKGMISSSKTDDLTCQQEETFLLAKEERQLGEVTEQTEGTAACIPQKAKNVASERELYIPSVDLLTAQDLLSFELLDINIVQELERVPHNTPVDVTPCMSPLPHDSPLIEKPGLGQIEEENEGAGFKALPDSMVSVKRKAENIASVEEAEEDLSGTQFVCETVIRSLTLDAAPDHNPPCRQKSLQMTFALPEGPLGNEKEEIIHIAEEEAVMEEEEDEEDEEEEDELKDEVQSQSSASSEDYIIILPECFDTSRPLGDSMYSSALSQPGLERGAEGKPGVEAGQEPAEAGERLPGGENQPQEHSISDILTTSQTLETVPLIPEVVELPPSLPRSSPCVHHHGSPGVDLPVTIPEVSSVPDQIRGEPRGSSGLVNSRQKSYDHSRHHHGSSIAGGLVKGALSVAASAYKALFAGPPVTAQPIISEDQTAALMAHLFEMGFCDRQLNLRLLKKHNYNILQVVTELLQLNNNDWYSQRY

10x-His-mCherry-TAX1BP1 = target: T3, 10x-His-mCherry-TAX1BP1 (UniProt Q86VP1 1-789); assay: microscopy-based protein interaction assay; mCherry-TAX1BP1 on RFP-trap beads, GFP-tagged NBR1 fragment CC2-LIR1 as prey
T3 construct: TAX1BP1, full-length (FL); also called mCh-TAX1BP1; mCherry-TAX1BP1 FL; source: Sf9 insect cells (pLIB vector, baculovirus), purified; not shown: mCherry, N-terminal, kept
T3 sequence (Q86VP1 whole entry, the tested form may be a part): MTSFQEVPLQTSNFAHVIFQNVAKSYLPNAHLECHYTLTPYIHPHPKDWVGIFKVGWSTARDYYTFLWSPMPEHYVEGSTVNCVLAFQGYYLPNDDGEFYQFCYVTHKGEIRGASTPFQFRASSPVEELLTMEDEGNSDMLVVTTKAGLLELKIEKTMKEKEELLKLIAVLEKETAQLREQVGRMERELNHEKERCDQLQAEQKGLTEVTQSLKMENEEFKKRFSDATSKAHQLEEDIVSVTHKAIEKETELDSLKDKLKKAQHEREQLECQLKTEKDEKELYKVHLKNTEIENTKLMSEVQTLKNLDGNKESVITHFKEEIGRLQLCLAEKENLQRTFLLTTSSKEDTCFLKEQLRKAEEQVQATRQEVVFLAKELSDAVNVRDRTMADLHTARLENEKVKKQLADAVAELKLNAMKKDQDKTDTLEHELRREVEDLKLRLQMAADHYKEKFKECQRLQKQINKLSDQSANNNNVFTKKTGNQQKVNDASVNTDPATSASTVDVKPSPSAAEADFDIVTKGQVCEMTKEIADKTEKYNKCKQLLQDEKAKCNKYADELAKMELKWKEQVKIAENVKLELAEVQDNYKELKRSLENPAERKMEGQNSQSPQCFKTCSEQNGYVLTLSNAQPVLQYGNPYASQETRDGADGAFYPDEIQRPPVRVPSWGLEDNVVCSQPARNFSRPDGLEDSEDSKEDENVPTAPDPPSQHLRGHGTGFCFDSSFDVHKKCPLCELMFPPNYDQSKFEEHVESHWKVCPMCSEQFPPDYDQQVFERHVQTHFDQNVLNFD

T1 sequence (Q86VP1 whole entry): as the sequence (Q86VP1 whole entry, the tested form may be a part) above

B1: NBR1 peptides of binding region 1 (aa347-aa365) (peptide, UniProt Q14596 347-365, looked up)
peptide: RPESLLQSNTLMLPLQPCT
notes: NBR1 aa347-365, covered by overlapping 12 aa spots of the peptide array; also called parts of the FW domain; source: synthetic peptides spotted on a membrane (Peptide Synthesis facility of the IMP)
B1: binds (10x-His-GFP-TAX1BP1).

B2: GST-N-domain (aa420-506 of TAX1BP1) (domain or fragment, UniProt Q86VP1 420-506, looked up)
chain: DQDKTDTLEHELRREVEDLKLRLQMAADHYKEKFKECQRLQKQINKLSDQSANNNNVFTKKTGNQQKVNDASVNTDPATSASTVDVK
B2: binds (GFP-NBR1 (purified)).

B3: NBR1 peptides of binding region 2 (aa731-aa749) (peptide, UniProt Q14596 731-749, looked up)
peptide: DYIIILPECFDTSRPLGDS
notes: NBR1 aa731-749, covered by overlapping 12 aa spots of the peptide array; source: synthetic peptides spotted on a membrane (Peptide Synthesis facility of the IMP)
B3: binds (10x-His-GFP-TAX1BP1).

B4: GFP-CC2-LIR1 (NBR1 aa685-aa757) (domain or fragment, UniProt Q14596 685-757, looked up)
chain: LGNEKEEIIHIAEEEAVMEEEEDEEDEEEEDELKDEVQSQSSASSEDYIIILPECFDTSRPLGDSMYSSALSQ
notes: the methods name the purified protein GST-GFP-CC2-LIR1 and give two ways of elution (TEV cleavage or glutathione) without saying which was used; also called GST-GFP-CC2-LIR1; source: E. coli Rosetta pLysS, purified (GSH beads, SEC); not shown: GFP, N-terminal, kept
B4: binds (10x-His-mCherry-TAX1BP1).
